For test [1], the target named is G115 Vγ9Vδ2+ TCR wild-type expressed on transfected cells. Briefly: flow cytometry, tetramer-PE against CD3-APC on HEK293T cells co-transfected with CD3 and G115 WT TCR; SAv control 27. A general note: Flow cytometry measures light scatter and fluorescence of single cells or particles in a stream.
The target of test [2] is G115 Vγ9Vδ2+ TCR Glu52δ-Ala expressed on transfected HEK293T cells. Briefly: flow cytometry, tetramer-PE against CD3-APC on HEK293T cells co-transfected with CD3 and G115 Glu52δ-Ala TCR; SAv control 32.
The target in test [3] is G115 Vγ9Vδ2+ TCR His85γ-Ala expressed on transfected HEK293T cells. Briefly: flow cytometry, tetramer-PE against CD3-APC on HEK293T cells co-transfected with CD3 and G115 His85γ-Ala TCR; SAv control 27.
For test [4], the target named is G115 Vγ9Vδ2+ TCR Lys53δ-Ala expressed on transfected HEK293T cells. Briefly: flow cytometry, tetramer-PE against CD3-APC on HEK293T cells co-transfected with CD3 and G115 Lys53δ-Ala TCR; SAv control 27.
Test [5] has as its target full-length human BTN3A1 on transfected cells (human) (UniProt O00481). Briefly: flow cytometry, γδTCR tetramer-PE on BTN3A1-transfected NIH-3T3 cells treated with isotype IgG1κ (black number); SAv control 26.
The target is the same in test [6]. Briefly: flow cytometry, control tetramer-PE on BTN3A1-transfected NIH-3T3 cells treated with isotype IgG1κ (black number); SAv control 25.
For test [7], the target named is full-length human BTN3A1 on transfected cells pre-treated (cross-linked) with anti-BTN3A mAb clone 20.1 (human). Briefly: flow cytometry, FRET (YG 670/30) between TCR tetramer-PE and anti-BTN3A 20.1-AF647 on BTN3A1+ NIH-3T3 cells; with IgG1κ-AF647 the gate holds 0, with SAv 0.

Sequence of mCD1d tet. ctl (P11609 22-305): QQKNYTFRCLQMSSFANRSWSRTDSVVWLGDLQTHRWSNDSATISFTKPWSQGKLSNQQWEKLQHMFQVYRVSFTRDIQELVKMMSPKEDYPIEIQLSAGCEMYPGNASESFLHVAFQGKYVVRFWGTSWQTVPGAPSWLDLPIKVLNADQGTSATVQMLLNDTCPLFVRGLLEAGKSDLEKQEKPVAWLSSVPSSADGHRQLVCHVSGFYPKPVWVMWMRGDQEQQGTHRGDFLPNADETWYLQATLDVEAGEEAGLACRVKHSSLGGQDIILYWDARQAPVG
Sequence of soluble G115 Vγ9Vδ2+ TCR wild-type (TCR delta): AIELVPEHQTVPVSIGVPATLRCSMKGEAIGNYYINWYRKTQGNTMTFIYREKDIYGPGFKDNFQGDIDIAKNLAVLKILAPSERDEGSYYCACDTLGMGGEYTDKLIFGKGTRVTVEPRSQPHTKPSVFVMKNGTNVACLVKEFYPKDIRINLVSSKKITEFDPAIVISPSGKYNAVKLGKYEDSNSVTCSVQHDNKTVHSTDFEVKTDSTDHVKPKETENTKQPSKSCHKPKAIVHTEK
Sequence of soluble G115 Vγ9Vδ2+ TCR wild-type (TCR gamma): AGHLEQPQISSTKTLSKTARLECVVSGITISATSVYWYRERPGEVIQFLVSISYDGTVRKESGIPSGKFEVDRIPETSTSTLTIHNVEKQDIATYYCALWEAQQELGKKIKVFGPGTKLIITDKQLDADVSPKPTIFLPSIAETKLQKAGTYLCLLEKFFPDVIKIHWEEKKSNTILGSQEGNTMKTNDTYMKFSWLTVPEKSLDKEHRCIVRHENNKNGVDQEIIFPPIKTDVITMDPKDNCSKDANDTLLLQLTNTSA

Turning to “BTN2A1-BTN3A1-zipper ectodomain complex (construct #1, long linker version with high affinity zippers) (ligand)”, the MFI of PE in test [1] was determined as 102; in test [2] it was 72; in test [3], 63; in test [4] it was 753.
“chimeric γδTCR tetramer: G115 pAg-reactive Vγ9+ γ-chain with 9C2 Vδ1+ δ-chain”: in test [5], the MFI of PE (GFP+ gate) was 24.
Turning to mCD1d tet. ctl, the MFI of PE in test [1] was determined as 20; in test [2], 26; in test [3] it was 22; in test [4] it was 23. In test [6], the MFI of PE (GFP+ gate) stood at 32.
Regarding “soluble BTN2A1 ectodomain lacking Cys247 (monomeric) (from UniProt Q7KYR7 29-246) (ligand)”, the MFI of PE in test [1] came to 282; in test [2] it was 469; in test [3], 28; in test [4], 507.
The substance soluble G115 Vγ9Vδ2+ TCR wild-type came in with an MFI of PE (GFP+ gate) in test [5] of 35. In test [7], the % cells in the FRET gate stood at 19%.

These data come from patent publication US20250179144A1.
